In US20230134580A1 (SHANGHAI HENLIUS BIOTECH, published 2023):
Like-named read-outs stand apart in the source and are kept apart here.

Key:
[1] = biological target: T1, human TIGIT (T cell immunoreceptor with Ig and ITIM domains), expressed on cells (human, UniProt Q495A1 22-244); experiment: cell-based or functional assay
T1 sequence: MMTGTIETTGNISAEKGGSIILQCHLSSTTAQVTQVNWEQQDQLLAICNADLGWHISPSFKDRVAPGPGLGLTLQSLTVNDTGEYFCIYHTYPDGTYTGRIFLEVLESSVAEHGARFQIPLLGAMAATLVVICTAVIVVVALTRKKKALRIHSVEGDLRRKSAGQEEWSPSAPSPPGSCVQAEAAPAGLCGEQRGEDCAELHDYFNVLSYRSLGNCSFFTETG

[2] = biological target: T1, human TIGIT (T cell immunoreceptor with …); experiment: cell-based or functional assay; remark: listed apart in the source
[3] = biological target: T1, human TIGIT (T cell immunoreceptor with …); experiment: cell-based or functional assay; remark: listed apart in the source
[4] = biological target: T1, human TIGIT (T cell immunoreceptor with …); experiment: whole cell binding assays, n=3 (FIG. 10A)
Description: Jurkat cells stably expressing human TIGIT and NFAT reporter gene were established. Specifically, Jurkat cells were transfected with human TIGIT expression vector by electroporation, and cells stably expressing human TIGIT were selected by 1 μg/ml puromycin during cell culture. Representative antibody clones were incubated at different concentrations with h-TIGIT stably expressing Jurkat cells (0.2×10^6/ml) in 100 μl/well in 96-well plate in FACS buffer (PBS with 1.5% FBS) for 30 min. After washing, Alexaflour 488 conjugated anti-human IgG Fc secondary antibody (Alexa Fluor® 488 AffiniPure Goat Anti-Human IgG, Fcγ fragment specific, Jackson labs, 1:500 dilution) was added and incubated for 30 min. After washing, mean fluorescence intensity was measured using CytoFlex (Beckman Coulter) by gating live cell population. Binding affinity was calculated using GraphPad Prism.

EC50, NFAT luciferase reporter assay (n=3) [1]: 0.48 nM
EC50 (read off the curve), NFAT luciferase reporter, TIGIT blockade [2]: ~1 nM
EC50 (read off the curve), NFAT luciferase reporter, TIGIT blockade [3]: ~0.7 nM
EC50 [4]: 0.32 nM
B1: Bivalent 2A3 antibody (2A3-Fc) (Fc fusion)
chain: QVQLVESGGGVVQPGRSLRLSCAASGGSFSSYPMGWFRQAPGKERESVAAISSDMRFTYYADSVKGRFTISRDNSKNTLYLQMNSLRAEDTAVYYCAARDSGVGYYSRAQWYDYWGQGTLVTVSS
notes: ExpiCHO, protein A purified; also called 2A3 clone; parental 2A3-Fc; not shown: human IgG1 CH2 and CH3 domains
